# Results: article PMC5070869, “Secretion-Positive LGI1 Mutations Linked to Lateral Temporal Epilepsy Impair Binding to ADAM22 and ADAM23 Receptors” (PLoS Genetics, 2016)
# T1: HA-ADAM23 (UniProt O75077 287-832)
# T1 construct: ADAM23 (A Disintegrin And Metalloprotease domain 23) receptor, cDNA; Expression of HA-ADAM23 in HEK293T was lower than that of HA-ADAM22; also called HA-tagged ADAM23; HA-fused ADAM23; source: COS7, co-transfected, on cells (immunofluorescence); HEK293T, co-transfected, in lysate (co-IP)
# T1 sequence (looked up): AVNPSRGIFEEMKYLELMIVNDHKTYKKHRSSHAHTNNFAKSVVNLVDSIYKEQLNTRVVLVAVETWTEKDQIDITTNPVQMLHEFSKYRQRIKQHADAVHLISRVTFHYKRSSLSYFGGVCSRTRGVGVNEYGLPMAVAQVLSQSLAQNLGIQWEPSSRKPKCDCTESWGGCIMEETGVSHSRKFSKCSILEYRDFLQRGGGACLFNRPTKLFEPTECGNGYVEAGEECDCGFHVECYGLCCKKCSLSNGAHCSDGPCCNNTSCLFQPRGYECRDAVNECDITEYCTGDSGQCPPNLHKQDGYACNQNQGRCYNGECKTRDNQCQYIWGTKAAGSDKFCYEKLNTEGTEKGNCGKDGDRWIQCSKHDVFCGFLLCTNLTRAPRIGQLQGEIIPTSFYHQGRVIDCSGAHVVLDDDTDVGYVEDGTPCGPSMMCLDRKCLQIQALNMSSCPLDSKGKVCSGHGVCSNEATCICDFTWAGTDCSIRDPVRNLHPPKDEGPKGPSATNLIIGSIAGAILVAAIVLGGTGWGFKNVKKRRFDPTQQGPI
# T2: HA-ADAM22 (UniProt Q9P0K1 223-906)
# T2 construct: ADAM22 (A Disintegrin And Metalloprotease domain 22) receptor, cDNA; In the HEK293T lysates it is present in both immature (110 kDa) and mature (90 kDa) forms; also called HA-tagged ADAM22; HA-fused ADAM22; source: COS7, co-transfected, on cells (immunofluorescence); HEK293T, co-transfected, in lysate (co-IP)
# T2 sequence (looked up): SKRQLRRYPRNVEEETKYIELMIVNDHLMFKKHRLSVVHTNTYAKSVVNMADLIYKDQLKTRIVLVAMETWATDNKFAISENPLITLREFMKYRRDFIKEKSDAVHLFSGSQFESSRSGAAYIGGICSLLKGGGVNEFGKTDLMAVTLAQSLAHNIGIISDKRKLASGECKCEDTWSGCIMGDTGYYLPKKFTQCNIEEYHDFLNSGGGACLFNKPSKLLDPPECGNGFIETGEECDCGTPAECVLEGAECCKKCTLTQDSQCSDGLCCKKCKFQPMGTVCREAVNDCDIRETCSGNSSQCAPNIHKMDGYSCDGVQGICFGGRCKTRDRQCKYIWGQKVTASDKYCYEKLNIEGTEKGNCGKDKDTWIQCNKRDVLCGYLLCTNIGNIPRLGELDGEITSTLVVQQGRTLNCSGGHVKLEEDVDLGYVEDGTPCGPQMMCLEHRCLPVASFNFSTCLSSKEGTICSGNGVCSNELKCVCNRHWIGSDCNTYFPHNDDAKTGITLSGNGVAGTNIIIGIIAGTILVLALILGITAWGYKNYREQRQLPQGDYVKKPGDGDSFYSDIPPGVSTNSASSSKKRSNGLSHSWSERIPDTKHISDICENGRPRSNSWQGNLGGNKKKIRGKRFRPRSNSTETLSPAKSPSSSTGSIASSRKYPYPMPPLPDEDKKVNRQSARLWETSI
# Key:
# [1] = biological target: T1, HA-ADAM23; assay: immunostaining of cells or tissue; COS7 cells co-transfected with LGI1-Flag (wild type or mutant) and HA-ADAM22 or HA-ADAM23; 36 h after transfection fixed, LGI1 stained with anti-Flag before permeabilisation, ADAM with anti-HA after it; percentage of co-immunostained cells with both signals on the cell surface counted; three independent experiments; details: partners not purified
# [2] = biological target: T2, HA-ADAM22; assay: as above; details: partners not purified
percent of cells with membrane-bound LGI1 [1],percent of cells with membrane-bound LGI1 [2],Binder
23%,13%,"LGI1-R474Q (Flag-tagged) (ligand, human, UniProt O95970 35-557, looked up, LGI1 with the ADLTE-causing substitution R474Q (c.1421G>A); secreted protein; also called c.1421G>A; source: COS7, co-transfected with HA-ADAM22 or HA-ADAM23 (immunofluorescence); HEK293T, co-transfected, in lysate (co-IP)) KKPAKPKCPAVCTCTKDNALCENARSIPRTVPPDVISLSFVRSGFTEISEGSFLFTPSLQLLLFTSNSFDVISDDAFIGLPHLEYLFIENNNIKSISRHTFRGLKSLIHLSLANNNLQTLPKDIFKGLDSLTNVDLRGNSFNCDCKLKWLVEWLGHTNATVEDIYCEGPPEYKKRKINSLSSKDFDCIITEFAKSQDLPYQSLSIDTFSYLNDEYVVIAQPFTGKCIFLEWDHVEKTFRNYDNITGTSTVVCKPIVIETQLYVIVAQLFGGSHIYKRDSFANKFIKIQDIEILKIRKPNDIETFKIENNWYFVVADSSKAGFTTIYKWNGNGFYSHQSLHAWYRDTDVEYLEIVRTPQTLRTPHLILSSSSQRPVIYQWNKATQLFTNQTDIPNMEDVYAVKHFSVKGDVYICLTRFIGDSKVMKWGGSSFQDIQRMPSQGSMVFQPLQINNYQYAILGSDYSFTQVYNWDAEKAKFVKFQELNVQAPRSFTHVSINKRNFLFASSFKGNTQIYKHVIVDLSA"
16%,3%,"LGI1-S473L (Flag-tagged) (ligand, human, UniProt O95970 35-557, looked up, LGI1 with the ADLTE-causing substitution S473L (c.1418C>T); secreted protein; also called c.1418C>T; source: COS7, co-transfected with HA-ADAM22 or HA-ADAM23 (immunofluorescence); HEK293T, co-transfected, in lysate (co-IP)) KKPAKPKCPAVCTCTKDNALCENARSIPRTVPPDVISLSFVRSGFTEISEGSFLFTPSLQLLLFTSNSFDVISDDAFIGLPHLEYLFIENNNIKSISRHTFRGLKSLIHLSLANNNLQTLPKDIFKGLDSLTNVDLRGNSFNCDCKLKWLVEWLGHTNATVEDIYCEGPPEYKKRKINSLSSKDFDCIITEFAKSQDLPYQSLSIDTFSYLNDEYVVIAQPFTGKCIFLEWDHVEKTFRNYDNITGTSTVVCKPIVIETQLYVIVAQLFGGSHIYKRDSFANKFIKIQDIEILKIRKPNDIETFKIENNWYFVVADSSKAGFTTIYKWNGNGFYSHQSLHAWYRDTDVEYLEIVRTPQTLRTPHLILSSSSQRPVIYQWNKATQLFTNQTDIPNMEDVYAVKHFSVKGDVYICLTRFIGDSKVMKWGGSSFQDIQRMPLRGSMVFQPLQINNYQYAILGSDYSFTQVYNWDAEKAKFVKFQELNVQAPRSFTHVSINKRNFLFASSFKGNTQIYKHVIVDLSA"

# Further lines, the binder ahead of its results:
Binder,percent of cells with membrane-bound LGI1 [1],percent of cells with membrane-bound LGI1 [2]
"wild type LGI1-Flag (leucine-rich, glioma-inactivated 1) (ligand, human, UniProt O95970 35-557, looked up, the protein has a signal peptide and is secreted; also called LGI1 wild type; WT; source: COS7, co-transfected with HA-ADAM22 or HA-ADAM23 (immunofluorescence); HEK293T, co-transfected, in lysate (co-IP)) KKPAKPKCPAVCTCTKDNALCENARSIPRTVPPDVISLSFVRSGFTEISEGSFLFTPSLQLLLFTSNSFDVISDDAFIGLPHLEYLFIENNNIKSISRHTFRGLKSLIHLSLANNNLQTLPKDIFKGLDSLTNVDLRGNSFNCDCKLKWLVEWLGHTNATVEDIYCEGPPEYKKRKINSLSSKDFDCIITEFAKSQDLPYQSLSIDTFSYLNDEYVVIAQPFTGKCIFLEWDHVEKTFRNYDNITGTSTVVCKPIVIETQLYVIVAQLFGGSHIYKRDSFANKFIKIQDIEILKIRKPNDIETFKIENNWYFVVADSSKAGFTTIYKWNGNGFYSHQSLHAWYRDTDVEYLEIVRTPQTLRTPHLILSSSSQRPVIYQWNKATQLFTNQTDIPNMEDVYAVKHFSVKGDVYICLTRFIGDSKVMKWGGSSFQDIQRMPSRGSMVFQPLQINNYQYAILGSDYSFTQVYNWDAEKAKFVKFQELNVQAPRSFTHVSINKRNFLFASSFKGNTQIYKHVIVDLSA",88%,76%
"LGI1-R407C (Flag-tagged) (ligand, human, UniProt O95970 35-557, looked up, LGI1 with the ADLTE-causing substitution R407C (c.1219C>T); secreted protein; also called c.1219C>T; source: COS7, co-transfected with HA-ADAM22 or HA-ADAM23 (immunofluorescence); HEK293T, co-transfected, in lysate (co-IP)) KKPAKPKCPAVCTCTKDNALCENARSIPRTVPPDVISLSFVRSGFTEISEGSFLFTPSLQLLLFTSNSFDVISDDAFIGLPHLEYLFIENNNIKSISRHTFRGLKSLIHLSLANNNLQTLPKDIFKGLDSLTNVDLRGNSFNCDCKLKWLVEWLGHTNATVEDIYCEGPPEYKKRKINSLSSKDFDCIITEFAKSQDLPYQSLSIDTFSYLNDEYVVIAQPFTGKCIFLEWDHVEKTFRNYDNITGTSTVVCKPIVIETQLYVIVAQLFGGSHIYKRDSFANKFIKIQDIEILKIRKPNDIETFKIENNWYFVVADSSKAGFTTIYKWNGNGFYSHQSLHAWYRDTDVEYLEIVRTPQTLRTPHLILSSSSQCPVIYQWNKATQLFTNQTDIPNMEDVYAVKHFSVKGDVYICLTRFIGDSKVMKWGGSSFQDIQRMPSRGSMVFQPLQINNYQYAILGSDYSFTQVYNWDAEKAKFVKFQELNVQAPRSFTHVSINKRNFLFASSFKGNTQIYKHVIVDLSA",29%,36%
